Patent US20260242735A1 (UNIVERSIT T BASEL, published 2026)

B1: Refmab #1 (antibody, human IgG1, V domains shown)
VH: EVQLVQSGAEVKKPGSSVKVSCKASGYTITDSNIHWVRQAPGQSLEWIGYIYPYNGGTDYNQKFKNRATLTVDNPTNTAYMELSSLRSEDTAFYYCVNGNPWLAYWGQGTLVTVSS
VL: DIQLTQSPSTLSASVGDRVTITCRASESLDNYGIRFLTWFQQKPGKAPKLLMYAASNQGSGVPSRFSGSGSGTEFTLTISSLQPDDFATYYCQQTKEVPWSFGQGTKVEVK
notes: Tested in IgG format; human IgG1 (Absolute Antibody hP67.6, Cat. No. Ab00283-10.0); also called hP67.6
B2: Refmab #3 (antibody, human IgG1, V domains shown)
VH: QVQLVQSGAEVKKPGSSVKVSCKASGYTFTDYNMHWVRQAPGQGLEWIGYIYPYNGGTGYNQKFKSKATITADESTNTAYMELSSLRSEDTAVYYCARGRPAMDYWGQGTLVTVSS
VL: DIQMTQSPSSLSASVGDRVTITCRASESVDNYGISFMNWFQQKPGKAPKLLIYAASNQGSGVPSRFSGSGSGTDFTLTISSLQPDDFATYYCQQSKEVPWTFGQGTKVEIK
notes: Tested in IgG format; human IgG1 Fc silent (PG-LALA)
B3: Refmab #2 (antibody, human IgG1, V domains shown)
VH: QVQLVQSGAEVKKPGSSVKVSCKASGGTFSDYAISWVRQAPGQGLEWMGRIIPILGVADYAQKFQGRVTITADKSTRTAYMELSSLRSEDTAVYYCARNWADAFDIWGQGTMVTVSS
VL: DIQLTQSPSSLSASVGDRVTITCRASQGISSVLAWYQQKPGKAPKLLIYDASSLESGVPSRFSGSGSGTDFTLTISSLQPEDFATYYCQQFDSSITFGQGTKLEIK
notes: as for B2
B4: Refmab #4 (antibody, human IgG1, V domains shown)
VH: QVQLVQSGAEVKKPGESVKVSCKASGYTFTNYGMNWVKQAPGQGLEWMGWINTYTGEPTYADKFQGRVTMTTDTSTSTAYMEIRNLGGDDTAVYYCARWSWSDGYYVYFDYWGQGTSVTVSS
VL: DIVMTQSPDSLTVSLGERTTINCKSSQSVLDSSTNKNSLAWYQQKPGQPPKLLLSWASTRESGIPDRFSGSGSGTDFTLTIDSPQPEDSATYYCQQSAHFPITFGQGTRLEIK
notes: as for B2

How the values were obtained:
Test in all cases: flow cytometry, mutant on cells, IgG
human CD33 P19K = human CD33 P19K (human, UniProt P20138 18-364)
Experimental: (§1) An alanine scan on human CD33 was performed to the determine the residues on CD33 that are involved in binding to the antibodies investigated. […] Briefly, a mutation library of CD33 was created by high-throughput, site-directed mutagenesis. Each residue was individually mutated to alanine, with alanine codons mutated to serine. The mutant library was arrayed in 384-well microplates and transiently transfected into HEK293-T. Following transfection, cells were incubated with the indicated antibodies (IgG or Fab) at concentrations pre-determined using an independent immunofluorescence titration curve on wild type CD33. […] Binding of each antibody to each mutant clone was determined in duplicates. For each point, background fluorescence was subtracted from the raw data, which were then normalized to antibody reactivity with wild type CD33.
(§2) Antibodies were screened for binding to the human CD33 variants in IgG format. […] For each mutation, background fluorescence was subtracted from the raw data, which were then normalized to antibody reactivity with wild-type CD33.

human CD33 N20G = human CD33 N20G (human, UniProt P20138 18-364)
Experimental: as §1, §2

human CD33 N20S = human CD33 N20S (human, UniProt P20138 18-364)
Experimental: as §1, §2

human CD33 N20T = human CD33 N20T (human, UniProt P20138 18-364)
Experimental: as §1, §2

human CD33 N20W = human CD33 N20W (human, UniProt P20138 18-364)
Experimental: as §1, §2

human CD33 N20D = human CD33 N20D (human, UniProt P20138 18-364)
Experimental: as §1, §2

human CD33 N20V = human CD33 N20V (human, UniProt P20138 18-364)
Experimental: as §1, §2

human CD33 F21H = human CD33 F21H (human, UniProt P20138 18-364)
Experimental: as §1, §2

human CD33 W22S = human CD33 W22S (human, UniProt P20138 18-364)
Experimental: as §1, §2

human CD33 W22T = human CD33 W22T (human, UniProt P20138 18-364)
Experimental: as §1, §2

human CD33 W22Q = human CD33 W22Q (human, UniProt P20138 18-364)
Experimental: as §1, §2

human CD33 W22E = human CD33 W22E (human, UniProt P20138 18-364)
Experimental: as §1, §2

human CD33 Q24T = human CD33 Q24T (human, UniProt P20138 18-364)
Experimental: as §1, §2

human CD33 Q24L = human CD33 Q24L (human, UniProt P20138 18-364)
Experimental: as §1, §2

human CD33 Q24N = human CD33 Q24N (human, UniProt P20138 18-364)
Experimental: as §1, §2

human CD33 Q24H = human CD33 Q24H (human, UniProt P20138 18-364)
Experimental: as §1, §2

human CD33 Q24R = human CD33 Q24R (human, UniProt P20138 18-364)
Experimental: as §1, §2

human CD33 V25I = human CD33 V25I (human, UniProt P20138 18-364)
Experimental: as §1, §2

human CD33 V25M = human CD33 V25M (human, UniProt P20138 18-364)
Experimental: as §1, §2

human CD33 T42K = human CD33 T42K (human, UniProt P20138 18-364)
Experimental: as §1, §2

human CD33 T42P = human CD33 T42P (human, UniProt P20138 18-364)
Experimental: as §1, §2

human CD33 F43V = human CD33 F43V (human, UniProt P20138 18-364)
Experimental: as §1, §2

human CD33 F43L = human CD33 F43L (human, UniProt P20138 18-364)
Experimental: as §1, §2

human CD33 F44S = human CD33 F44S (human, UniProt P20138 18-364)
Experimental: as §1, §2

human CD33 F44V = human CD33 F44V (human, UniProt P20138 18-364)
Experimental: as §1, §2

human CD33 F44I = human CD33 F44I (human, UniProt P20138 18-364)
Experimental: as §1, §2

human CD33 F44L = human CD33 F44L (human, UniProt P20138 18-364)
Experimental: as §1, §2

human CD33 F44Q = human CD33 F44Q (human, UniProt P20138 18-364)
Experimental: as §1, §2

human CD33 F44D = human CD33 F44D (human, UniProt P20138 18-364)
Experimental: as §1, §2

human CD33 H45Y = human CD33 H45Y (human, UniProt P20138 18-364)
Experimental: as §1, §2

human CD33 D18N = human CD33 D18N (human, UniProt P20138 19-364)
Experimental: as §1, §2

human CD33 P46L = human CD33 P46L (human, UniProt P20138 18-364)
Experimental: as §1, §2

human CD33 P46R = human CD33 P46R (human, UniProt P20138 18-364)
Experimental: as §1, §2

human CD33 P46H = human CD33 P46H (human, UniProt P20138 18-364)
Experimental: as §1, §2

human CD33 I47G = human CD33 I47G (human, UniProt P20138 18-364)
Experimental: as §1, §2

human CD33 P19L = human CD33 P19L (human, UniProt P20138 18-364)
Experimental: as §1, §2

human CD33 I47V = human CD33 I47V (human, UniProt P20138 18-364)
Experimental: as §1, §2

human CD33 N20S, sequence (P20138 18-364 N20S limits assumed): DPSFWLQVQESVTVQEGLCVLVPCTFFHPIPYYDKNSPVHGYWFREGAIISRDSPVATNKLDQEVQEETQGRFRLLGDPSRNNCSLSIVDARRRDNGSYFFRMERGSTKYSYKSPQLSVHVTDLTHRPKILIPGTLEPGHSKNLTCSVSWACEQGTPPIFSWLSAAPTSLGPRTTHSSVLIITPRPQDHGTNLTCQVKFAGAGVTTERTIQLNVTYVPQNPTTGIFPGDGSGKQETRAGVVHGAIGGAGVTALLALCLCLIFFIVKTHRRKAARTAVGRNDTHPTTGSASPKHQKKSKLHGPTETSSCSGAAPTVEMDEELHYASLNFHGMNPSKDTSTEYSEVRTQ
human CD33 F44D, sequence (P20138 18-364 F44D limits assumed): as the sequence (P20138 18-364 N20S limits assumed) above, with S3N, F27D counted along it
human CD33 Q24R, sequence (P20138 18-364 Q24R limits assumed): as the sequence (P20138 18-364 N20S limits assumed) above, with S3N, Q7R counted along it
human CD33 N20D, sequence (P20138 18-364 N20D limits assumed): as the sequence (P20138 18-364 N20S limits assumed) above, with S3D counted along it
human CD33 F44S, sequence (P20138 18-364 F44S limits assumed): as the sequence (P20138 18-364 N20S limits assumed) above, with S3N, F27S counted along it
human CD33 P46R, sequence (P20138 18-364 P46R limits assumed): as the sequence (P20138 18-364 N20S limits assumed) above, with S3N, P29R counted along it
human CD33 N20W, sequence (P20138 18-364 N20W limits assumed): as the sequence (P20138 18-364 N20S limits assumed) above, with S3W counted along it
human CD33 D18N, sequence (P20138 18-364 D18N limits assumed): as the sequence (P20138 18-364 N20S limits assumed) above, with D1N, S3N counted along it
human CD33 W22E, sequence (P20138 18-364 W22E limits assumed): as the sequence (P20138 18-364 N20S limits assumed) above, with S3N, W5E counted along it
human CD33 I47G, sequence (P20138 18-364 I47G limits assumed): as the sequence (P20138 18-364 N20S limits assumed) above, with S3N, I30G counted along it
human CD33 Q24N, sequence (P20138 18-364 Q24N limits assumed): as the sequence (P20138 18-364 N20S limits assumed) above, with S3N, Q7N counted along it
human CD33 N20T, sequence (P20138 18-364 N20T limits assumed): as the sequence (P20138 18-364 N20S limits assumed) above, with S3T counted along it
human CD33 P46L, sequence (P20138 18-364 P46L limits assumed): as the sequence (P20138 18-364 N20S limits assumed) above, with S3N, P29L counted along it
human CD33 F44V, sequence (P20138 18-364 F44V limits assumed): as the sequence (P20138 18-364 N20S limits assumed) above, with S3N, F27V counted along it

| Binder | Mean % WT Binding (human CD33 P19K) [% WT binding] | Mean % WT Binding (human CD33 N20G) [% WT binding] | Mean % WT Binding (human CD33 N20S) [% WT binding] | Mean % WT Binding (human CD33 N20T) [% WT binding] | Mean % WT Binding (human CD33 N20W) [% WT binding] | Mean % WT Binding (human CD33 N20D) [% WT binding] | Mean % WT Binding (human CD33 N20V) [% WT binding] | Mean % WT Binding (human CD33 F21H) [% WT binding] | Mean % WT Binding (human CD33 W22S) [% WT binding] | Mean % WT Binding (human CD33 W22T) [% WT binding] | Mean % WT Binding (human CD33 W22Q) [% WT binding] | Mean % WT Binding (human CD33 W22E) [% WT binding] | Mean % WT Binding (human CD33 Q24T) [% WT binding] | Mean % WT Binding (human CD33 Q24L) [% WT binding] | Mean % WT Binding (human CD33 Q24N) [% WT binding] | Mean % WT Binding (human CD33 Q24H) [% WT binding] | Mean % WT Binding (human CD33 Q24R) [% WT binding] | Mean % WT Binding (human CD33 V25I) [% WT binding] | Mean % WT Binding (human CD33 V25M) [% WT binding] | Mean % WT Binding (human CD33 T42K) [% WT binding] | other results |
| --- | --- | --- | --- | --- | --- | --- | --- | --- | --- | --- | --- | --- | --- | --- | --- | --- | --- | --- | --- | --- | --- |
| B1 | 5.5 | 5.1 | 45.5 | 6.9 | 0.6 | 0.7 | 4.2 | 20.6 | 74.3 | 6.2 | 99.5 | 5 | 81.4 | 80.9 | 86.5 | 95.3 | 95.1 | 113 | 97.3 | 106 | Mean % WT Binding (human CD33 T42P): 14.6 % WT binding; Mean % WT Binding (human CD33 F43V): 101 % WT binding; Mean % WT Binding (human CD33 F43L): 111 % WT binding; Mean % WT Binding (human CD33 F44S): 79.8 % WT binding; Mean % WT Binding (human CD33 F44V): 99.5 % WT binding; Mean % WT Binding (human CD33 F44I): 100 % WT binding; Mean % WT Binding (human CD33 F44L): 112 % WT binding; Mean % WT Binding (human CD33 F44Q): 106 % WT binding; Mean % WT Binding (human CD33 F44D): 98.9 % WT binding; Mean % WT Binding (human CD33 H45Y): 80.3 % WT binding; Mean % WT Binding (human CD33 D18N): 69.6 % WT binding; Mean % WT Binding (human CD33 P46L): 28.9 % WT binding; Mean % WT Binding (human CD33 P46R): 1 % WT binding; Mean % WT Binding (human CD33 P46H): 0.7 % WT binding; Mean % WT Binding (human CD33 I47G): 105 % WT binding; Mean % WT Binding (human CD33 P19L): 91.6 % WT binding; Mean % WT Binding (human CD33 I47V): 112 % WT binding |
| B2 | 1.8 | 3.6 | 4.6 | 2.2 | 0.7 | 4.6 | 0.5 | 1.4 | 1.4 | 1.3 | 12.5 | 1.4 | 3.9 | 11.8 | 35.3 | 7.1 | 74.6 | 113 | 90.4 | 103 | Mean % WT Binding (human CD33 T42P): 18.6 % WT binding; Mean % WT Binding (human CD33 F43V): 101 % WT binding; Mean % WT Binding (human CD33 F43L): 111 % WT binding; Mean % WT Binding (human CD33 F44S): 11.4 % WT binding; Mean % WT Binding (human CD33 F44V): 101 % WT binding; Mean % WT Binding (human CD33 F44I): 101 % WT binding; Mean % WT Binding (human CD33 F44L): 80 % WT binding; Mean % WT Binding (human CD33 F44Q): 105 % WT binding; Mean % WT Binding (human CD33 F44D): 1.2 % WT binding; Mean % WT Binding (human CD33 H45Y): 4 % WT binding; Mean % WT Binding (human CD33 D18N): 71.5 % WT binding; Mean % WT Binding (human CD33 P46L): 0.7 % WT binding; Mean % WT Binding (human CD33 P46R): 1 % WT binding; Mean % WT Binding (human CD33 P46H): 0.5 % WT binding; Mean % WT Binding (human CD33 I47G): 107 % WT binding; Mean % WT Binding (human CD33 P19L): 117 % WT binding; Mean % WT Binding (human CD33 I47V): 100 % WT binding |
| B3 | 115 | 105 | 124 | 116 | 61.2 | 109 | 116 | 117 | 105 | 103 | 108 | 107 | 95.2 | 102 | 117 | 101 | 96.8 | 114 | 83 | 95.5 | Mean % WT Binding (human CD33 T42P): 12.7 % WT binding; Mean % WT Binding (human CD33 F43V): 24.5 % WT binding; Mean % WT Binding (human CD33 F43L): 45.8 % WT binding; Mean % WT Binding (human CD33 F44S): 0.8 % WT binding; Mean % WT Binding (human CD33 F44V): 2.3 % WT binding; Mean % WT Binding (human CD33 F44I): 0.4 % WT binding; Mean % WT Binding (human CD33 F44Q): 0.5 % WT binding; Mean % WT Binding (human CD33 F44D): 2 % WT binding; Mean % WT Binding (human CD33 H45Y): 80.7 % WT binding; Mean % WT Binding (human CD33 D18N): 59.2 % WT binding; Mean % WT Binding (human CD33 P46L): 93.8 % WT binding; Mean % WT Binding (human CD33 P46R): 64.7 % WT binding; Mean % WT Binding (human CD33 P46H): 95.1 % WT binding; Mean % WT Binding (human CD33 I47G): 3.7 % WT binding; Mean % WT Binding (human CD33 P19L): 111 % WT binding; Mean % WT Binding (human CD33 I47V): 97.2 % WT binding |
| B4 | 92 | 103 | 91.7 | 92.1 | 52.1 | 91.3 | 118 | 123 | 103 | 103 | 111 | 99.4 | 97.2 | 97 | 107 | 93.2 | 98.6 | 104 | 81.1 | 86 | Mean % WT Binding (human CD33 T42P): 21.6 % WT binding; Mean % WT Binding (human CD33 F43V): 81.5 % WT binding; Mean % WT Binding (human CD33 F43L): 100 % WT binding; Mean % WT Binding (human CD33 F44S): 93.8 % WT binding; Mean % WT Binding (human CD33 F44V): 96.6 % WT binding; Mean % WT Binding (human CD33 F44I): 98.7 % WT binding; Mean % WT Binding (human CD33 F44L): 100 % WT binding; Mean % WT Binding (human CD33 F44Q): 102 % WT binding; Mean % WT Binding (human CD33 F44D): 110 % WT binding; Mean % WT Binding (human CD33 H45Y): 79.2 % WT binding; Mean % WT Binding (human CD33 D18N): 76 % WT binding; Mean % WT Binding (human CD33 P46L): 96.3 % WT binding; Mean % WT Binding (human CD33 P46R): 106 % WT binding; Mean % WT Binding (human CD33 P46H): 69.5 % WT binding; Mean % WT Binding (human CD33 I47G): 72.5 % WT binding; Mean % WT Binding (human CD33 P19L): 101 % WT binding; Mean % WT Binding (human CD33 I47V): 99 % WT binding |
